The target in the assay is CFP-Cav1 (human caveolin-1 with CFP at its N terminus) (human) (UniProt Q03135). The experiment in a line: FRET or BRET. (In BRET a luciferase serves as donor, and the signal depends on an acceptor being close.)
UniProt Q03135, sequence (Q03135 whole entry): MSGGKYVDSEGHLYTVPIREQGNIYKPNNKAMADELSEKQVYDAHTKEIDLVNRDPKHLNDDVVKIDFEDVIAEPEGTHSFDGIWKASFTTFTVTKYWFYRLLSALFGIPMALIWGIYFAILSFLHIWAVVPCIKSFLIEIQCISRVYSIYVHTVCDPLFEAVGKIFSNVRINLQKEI

Substance “YFP-tagged rat Na/K-ATPase α1 pump-null mutant D371N (natural protein)” returned an FRET efficiency of 15%.

Source of the values: paper PMC2542476.
